Test results published in patent US20250270341A1 (Alector, published 2025).

T1: Full length mouse CD98hc on CHO cells (mouse, UniProt P10852 1-526)
T1 construct: CHO cells stably overexpressing it; also called CHO-mouse CD98hc; CHO-mCD98hc
T1 sequence: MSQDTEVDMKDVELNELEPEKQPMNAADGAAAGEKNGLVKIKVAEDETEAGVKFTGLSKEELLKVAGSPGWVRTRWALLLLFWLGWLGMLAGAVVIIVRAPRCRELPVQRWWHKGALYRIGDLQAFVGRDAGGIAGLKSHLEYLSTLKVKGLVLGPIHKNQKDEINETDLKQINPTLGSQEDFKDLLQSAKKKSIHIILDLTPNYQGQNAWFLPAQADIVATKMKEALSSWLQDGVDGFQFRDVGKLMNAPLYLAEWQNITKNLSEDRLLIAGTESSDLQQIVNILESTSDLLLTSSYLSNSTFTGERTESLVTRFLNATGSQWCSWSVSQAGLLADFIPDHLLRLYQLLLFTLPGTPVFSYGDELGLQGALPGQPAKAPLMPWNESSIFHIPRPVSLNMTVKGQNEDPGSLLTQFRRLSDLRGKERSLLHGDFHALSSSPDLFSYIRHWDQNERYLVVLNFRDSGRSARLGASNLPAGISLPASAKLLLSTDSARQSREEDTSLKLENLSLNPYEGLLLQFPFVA

T2: human CD98hc endogenously expressed on HCMEC/D3 cells (human)
T2 construct: human brain endothelial cell line
T2 chain: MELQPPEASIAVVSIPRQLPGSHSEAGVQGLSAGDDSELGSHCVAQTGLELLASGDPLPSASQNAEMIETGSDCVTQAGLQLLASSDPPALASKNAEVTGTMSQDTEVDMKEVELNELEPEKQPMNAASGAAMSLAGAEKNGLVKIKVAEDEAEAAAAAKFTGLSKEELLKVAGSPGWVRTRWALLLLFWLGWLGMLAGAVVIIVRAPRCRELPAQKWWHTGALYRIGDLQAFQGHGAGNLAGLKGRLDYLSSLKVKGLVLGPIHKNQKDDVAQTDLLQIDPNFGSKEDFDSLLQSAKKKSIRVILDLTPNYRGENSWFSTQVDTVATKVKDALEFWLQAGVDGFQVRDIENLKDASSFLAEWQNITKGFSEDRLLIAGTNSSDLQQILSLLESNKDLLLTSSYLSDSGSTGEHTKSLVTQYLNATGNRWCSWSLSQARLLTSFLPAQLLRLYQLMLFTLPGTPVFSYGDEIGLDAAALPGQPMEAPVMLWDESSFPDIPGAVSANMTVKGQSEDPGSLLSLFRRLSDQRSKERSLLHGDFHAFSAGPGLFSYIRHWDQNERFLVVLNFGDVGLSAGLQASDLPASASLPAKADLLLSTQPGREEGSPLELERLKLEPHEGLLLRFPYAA

T3: Full length human CD98hc on CHO cells (human)
T3 construct: CHO cells stably overexpressing it; also called CHO-human CD98hc; CHO-huCD98hc
T3 chain: T2 chain

B1: CD98HC.03.004 (antibody, V domains shown)
VH: DVQLQESGPGLVKPSQSLSLTCTVTGYSITNNYAWNWIRRFPGNKLEWMAYISYSGYTSYNPSLKSRISITRDTSKNQFFLQLNSVTTEDTATYYCTGYFYYYGGGSFDYWGQGTTLTVSS
VL: QAVVTQESALTTSPGETVTLTCRSSTGAVTTSNFANWVQEKPDHLFTGLIRGSNNRAPGVPARFSGSLIGDKAALTITGARTEDEAIYFCALWYSDHWVFGGGTKLTVL
notes: hybridoma IgG
B2: CD98HC.04.046 (antibody, V domains shown)
VH: QIQLVQSGPVLKKPGETVKISCKASGYTFTNFGMNWVKQAPGKGLKWMGWIDTYTREPTYVDDFKGRFAFSLETSVTTAYLQINDLKNEDSATYFCARGESHWYFDVWGAGTTVTVSS
VL: QIVLTQSPAIMSASLGERVTMTCIVSSSVSSSYLYWYQQKPGSSPKLWIYSTSILASGVPGRFSGSGSGTSYSLTISSMEAEDAATYYCHQYHRSPPTFGGGTKLEIK
notes: hybridoma IgG
B3: CD98HC.04.058 (antibody, V domains shown)
VH: QVQLQQSGAELVRPGVSVKISCKASGYTFTDHTMHWVKQSHARSLEWIGVISTYFGDASYNPKFKGKATMTVDKSSNTAYMELARLTSEDSAIYYCARVGGRLRLGYYFDYWGQGTTLTVSS
VL: NIMMTQSPSSLAVSAGEKVTMNCKSSQTVLYSSNQKNYLAWYQQKPGQSPKLLIYWASTRESGVPDRFTGSGSGTDFTLTISSVQVEDLAVYYCHQYLSSYTFGGGTKLEIK
notes: hybridoma IgG
B4: CD98HC.04.063 (antibody, V domains shown)
VH: EVKLEESGGGLVQPGGSMILSCVASGFTFSNSWMNWVRQSPEKGLEWVAEIRLRSNNYATHYAESVKGRFTISRDDSKSTVYLQMNNLRAEDTGIYYCSRGDPGAYWGQGTLVTVSA
VL: DIQMTQSSSYLSVSLGNRVTITCKASDHIKNWLAWFQQKPGNAPRLLISGATILETGVPSRFSGSGSGKDYTLSITSLQTEDVATYYCQQYWSTPYTFGGGTKLEIK
notes: hybridoma IgG
B5: CD98HC.04.062 (antibody, V domains shown)
VH: EVQLVESGGDLVKPGGSLKLSCTASRFAFSTYDMSWVRQTPEKRLEWVAYISSGGGSTYFPDTVKGRFTISRDNAKNTLYLQMSSLKSEDTAMYYCARQDGHYPWFPYWGQGTLVTVSA
VL: DIVMSQSPSSLAVSVGEKVTMSCKSSQSLLYSGNQKTYLAWYQQKPGQSPKPLIYWASTRESGIPDRFTGSGSGTDFTLTISSVKAEDLAVYYCQQYYSYPPTFGAGTKLELK
notes: hybridoma IgG
B6: CD98HC.03.010 (antibody, V domains shown)
VH: EVQLQQSGTELVKPGASVKLSCTASGLDIKDTYLHWVKQRPEQGLEWIGKIDPANGNTKYNPKFQGKATITADTSSNTAYLQLSSLTSEDTAVHYCTTPYYSGSSYGDYWGQGTTLTVSS
VL: QIVLTQSPAIMSASPGEKVTLTCSASSSVSSSYLYWYQQKPGSSPKLWIYSTSNLASGVPARFSGSGSGTSYSLTISSMEAEDAASYFCHQWSRYPLTFGAGTKLELK
notes: hybridoma IgG
B7: CD98HC.04.064 (antibody, V domains shown)
VH: QVQLQQPGAELVRPGASVKLSCKASGYTFTSYWMNWVRQRPGQGLEWIGLIDPSDSETHYNQMFKDRATLTVDKSSSTAYMQLSSLTSADPAVYYCARASYGKGYFDYWGQGTTLTVSS
VL: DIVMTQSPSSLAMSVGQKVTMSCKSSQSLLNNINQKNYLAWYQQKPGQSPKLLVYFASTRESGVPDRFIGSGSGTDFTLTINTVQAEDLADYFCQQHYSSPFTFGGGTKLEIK
notes: hybridoma IgG

Each binder was assayed against T1, Full length mouse CD98hc on CHO cells (assay: FACS, hybridoma supernatant).
From the text: The IgG positive hybridoma supernatants (898 in total) were initially screened for their ability to differentially bind CHO cells overexpressing human or mouse CD98hc cells compared to CHO parental cells by FACS. Overexpressing cells were harvested, washed, and labeled with various concentrations and combinations of CellTrace cell proliferation dyes CFSE and Violet (ThermoFisher, Cat #C34554 and Cat #34557, respectively) to create uniquely barcoded cell populations. Barcoded cells (5×10⁴ of each cell population) were aliquoted into 96-well U-bottom plates and incubated with 50 μl of hybridoma cell culture supernatant or 1 μg/ml of commercially available purified mouse anti-human CD98hc monoclonal antibody (Sigma Aldrich, Cat #SAB 4700503) and rat anti-mouse CD98hc antibody (Bio-Rad Laboratories, Hercules, CA, Cat #MCA2684) on ice for 30 minutes. […] Following this secondary antibody incubation, the cells were again washed twice with ice-cold FACS buffer and resuspended in a final volume of 50 μl of FACS buffer containing 0.25 μl/well propidium iodide (BD Biosciences, Cat #556463). Binding intensity on cells was analyzed using the FACS Canto system (BD Biosciences), with sorting gates drawn to exclude dead (i.e., propidium iodide-positive) cells. For each barcoded cell population, the ratio of APC Mean Fluorescence Intensity (MFI) divided by secondary antibody MFI was calculated for each anti-CD98hc hybridoma supernatant tested and reported in Table 5.

B1: no binding.
B2: no binding.
B3: no binding.
B4: no binding.
B5: no binding.
B6: no binding.
B7: no binding.

Biological target: T2, human CD98hc endogenously expressed on …
Test: FACS, hybridoma supernatant

Going from B1 to B2, the “MFI ratio over secondary antibody” value falls from 189 to 147.

Going from B3 to B4, the “MFI ratio over secondary antibody” value falls from 158 to 124.

Going from B5 to B6, the “MFI ratio over secondary antibody” value rises from 91.8 to 190.

With B7 the “MFI ratio over secondary antibody” value was 277.

Biological target: T3, Full length human CD98hc on CHO cells
Test: FACS, hybridoma supernatant

Compared with B1, B2 is lower in “MFI ratio over secondary antibody” value: 34.4 for the first, 27.7 for the second.

Compared with B3, B4 is higher in “MFI ratio over secondary antibody” value: 33 for the first, 34.4 for the second.

Compared with B5, B6 is higher in “MFI ratio over secondary antibody” value: 25.1 for the first, 25.8 for the second.

B7 was tested, and the “MFI ratio over secondary antibody” value was 46.6.

Biological target: T1, Full length mouse CD98hc on CHO cells
Test: FACS, hybridoma supernatant
Remark: another data set of the same source

Going from B1 to B2, the “MFI ratio over secondary antibody” value rises from 1 to 1.2.

B3 and B4 are the same in “MFI ratio over secondary antibody” value: 1.2 for the first, 1.2 for the second.

Going from B5 to B6, the “MFI ratio over secondary antibody” value falls from 1.3 to 1.

B7 was tested, and the “MFI ratio over secondary antibody” value was 1.2.
